How the values were obtained:
Assay in all cases: EMSA
[1] = target: recombinant murine integrin α6β4 (Mus musculus, UniProt Q61739;A2A863 24-1011;29-712)
[2] = target: recombinant human integrin α6β1 (Homo sapiens, UniProt P23229;P05556 24-1050;21-728)
[3] = target: recombinant human integrin α6β4 (Homo sapiens, UniProt P23229;P16144 24-1050;28-710)

Measured: binding result

Chain of recombinant murine integrin α6β4 (Q61739 24-1011, chain 1 of 2): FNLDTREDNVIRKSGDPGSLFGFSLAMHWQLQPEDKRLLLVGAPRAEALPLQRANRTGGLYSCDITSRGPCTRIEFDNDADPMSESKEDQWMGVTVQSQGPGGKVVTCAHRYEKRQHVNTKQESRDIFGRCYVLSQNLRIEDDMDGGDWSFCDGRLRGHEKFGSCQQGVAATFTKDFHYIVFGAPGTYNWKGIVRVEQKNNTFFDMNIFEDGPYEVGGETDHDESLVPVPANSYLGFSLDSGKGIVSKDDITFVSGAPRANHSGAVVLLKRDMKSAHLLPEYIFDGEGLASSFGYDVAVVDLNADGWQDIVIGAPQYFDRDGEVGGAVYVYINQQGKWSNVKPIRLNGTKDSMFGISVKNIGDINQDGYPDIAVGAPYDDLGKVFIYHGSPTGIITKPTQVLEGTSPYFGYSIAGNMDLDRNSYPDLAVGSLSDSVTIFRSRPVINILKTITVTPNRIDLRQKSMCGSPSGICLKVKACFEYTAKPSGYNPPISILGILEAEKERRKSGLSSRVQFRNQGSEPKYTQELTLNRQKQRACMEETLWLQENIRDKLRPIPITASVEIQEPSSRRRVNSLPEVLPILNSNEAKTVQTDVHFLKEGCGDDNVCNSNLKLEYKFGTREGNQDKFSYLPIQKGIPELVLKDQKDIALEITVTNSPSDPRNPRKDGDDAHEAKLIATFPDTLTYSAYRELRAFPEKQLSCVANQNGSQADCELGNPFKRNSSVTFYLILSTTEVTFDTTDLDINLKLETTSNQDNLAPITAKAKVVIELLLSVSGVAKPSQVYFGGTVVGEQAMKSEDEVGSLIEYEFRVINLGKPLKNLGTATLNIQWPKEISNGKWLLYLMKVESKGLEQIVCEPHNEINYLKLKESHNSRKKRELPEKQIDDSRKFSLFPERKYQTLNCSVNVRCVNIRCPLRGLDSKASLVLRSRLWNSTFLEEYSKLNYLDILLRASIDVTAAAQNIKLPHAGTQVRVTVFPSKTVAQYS
Chain of recombinant murine integrin α6β4 (A2A863 29-712, chain 2 of 2): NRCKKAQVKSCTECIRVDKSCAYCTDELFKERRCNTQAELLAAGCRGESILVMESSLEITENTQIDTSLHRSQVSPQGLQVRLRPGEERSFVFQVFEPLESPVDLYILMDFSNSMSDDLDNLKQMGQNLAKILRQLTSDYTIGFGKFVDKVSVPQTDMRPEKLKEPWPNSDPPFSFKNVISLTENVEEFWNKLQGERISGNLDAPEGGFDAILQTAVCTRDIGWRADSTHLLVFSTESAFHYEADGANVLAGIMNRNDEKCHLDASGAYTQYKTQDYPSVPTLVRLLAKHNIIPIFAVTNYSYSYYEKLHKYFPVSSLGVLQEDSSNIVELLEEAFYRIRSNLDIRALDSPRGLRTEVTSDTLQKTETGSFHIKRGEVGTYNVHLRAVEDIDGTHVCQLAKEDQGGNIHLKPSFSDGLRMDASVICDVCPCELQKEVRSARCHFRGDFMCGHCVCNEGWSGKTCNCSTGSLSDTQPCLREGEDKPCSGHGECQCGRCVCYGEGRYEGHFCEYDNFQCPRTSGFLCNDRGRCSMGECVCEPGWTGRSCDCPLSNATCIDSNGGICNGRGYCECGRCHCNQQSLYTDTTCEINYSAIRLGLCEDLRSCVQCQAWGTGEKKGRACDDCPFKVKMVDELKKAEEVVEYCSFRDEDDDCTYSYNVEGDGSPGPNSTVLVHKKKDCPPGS
Chain of recombinant human integrin α6β4 (P23229 24-1050, chain 1 of 2): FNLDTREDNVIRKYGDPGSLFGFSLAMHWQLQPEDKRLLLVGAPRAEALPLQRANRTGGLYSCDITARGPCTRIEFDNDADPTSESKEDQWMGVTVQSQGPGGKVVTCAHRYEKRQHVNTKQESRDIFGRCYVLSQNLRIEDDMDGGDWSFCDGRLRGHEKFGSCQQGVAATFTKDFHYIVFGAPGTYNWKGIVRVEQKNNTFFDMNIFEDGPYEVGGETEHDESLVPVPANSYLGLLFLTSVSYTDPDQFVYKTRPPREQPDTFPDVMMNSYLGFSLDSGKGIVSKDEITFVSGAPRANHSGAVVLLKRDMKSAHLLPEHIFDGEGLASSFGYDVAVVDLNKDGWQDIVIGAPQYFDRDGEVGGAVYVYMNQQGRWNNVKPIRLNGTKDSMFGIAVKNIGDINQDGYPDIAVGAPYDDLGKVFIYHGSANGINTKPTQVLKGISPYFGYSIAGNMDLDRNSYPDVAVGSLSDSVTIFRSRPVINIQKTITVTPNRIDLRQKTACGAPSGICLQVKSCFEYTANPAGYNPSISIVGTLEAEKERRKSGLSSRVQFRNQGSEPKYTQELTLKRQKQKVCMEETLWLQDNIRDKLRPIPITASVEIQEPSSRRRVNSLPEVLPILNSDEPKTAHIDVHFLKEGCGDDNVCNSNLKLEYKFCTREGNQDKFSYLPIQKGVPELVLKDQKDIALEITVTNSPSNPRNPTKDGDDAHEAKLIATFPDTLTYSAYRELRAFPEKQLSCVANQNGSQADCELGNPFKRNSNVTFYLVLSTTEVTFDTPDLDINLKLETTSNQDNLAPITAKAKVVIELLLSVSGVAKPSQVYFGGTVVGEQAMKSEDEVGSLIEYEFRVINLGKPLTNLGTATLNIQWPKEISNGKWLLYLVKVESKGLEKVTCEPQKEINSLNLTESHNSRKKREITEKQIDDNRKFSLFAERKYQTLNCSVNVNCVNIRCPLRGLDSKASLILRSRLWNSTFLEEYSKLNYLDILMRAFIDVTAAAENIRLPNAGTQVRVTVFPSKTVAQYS
Chain of recombinant human integrin α6β4 (P16144 28-710, chain 2 of 2): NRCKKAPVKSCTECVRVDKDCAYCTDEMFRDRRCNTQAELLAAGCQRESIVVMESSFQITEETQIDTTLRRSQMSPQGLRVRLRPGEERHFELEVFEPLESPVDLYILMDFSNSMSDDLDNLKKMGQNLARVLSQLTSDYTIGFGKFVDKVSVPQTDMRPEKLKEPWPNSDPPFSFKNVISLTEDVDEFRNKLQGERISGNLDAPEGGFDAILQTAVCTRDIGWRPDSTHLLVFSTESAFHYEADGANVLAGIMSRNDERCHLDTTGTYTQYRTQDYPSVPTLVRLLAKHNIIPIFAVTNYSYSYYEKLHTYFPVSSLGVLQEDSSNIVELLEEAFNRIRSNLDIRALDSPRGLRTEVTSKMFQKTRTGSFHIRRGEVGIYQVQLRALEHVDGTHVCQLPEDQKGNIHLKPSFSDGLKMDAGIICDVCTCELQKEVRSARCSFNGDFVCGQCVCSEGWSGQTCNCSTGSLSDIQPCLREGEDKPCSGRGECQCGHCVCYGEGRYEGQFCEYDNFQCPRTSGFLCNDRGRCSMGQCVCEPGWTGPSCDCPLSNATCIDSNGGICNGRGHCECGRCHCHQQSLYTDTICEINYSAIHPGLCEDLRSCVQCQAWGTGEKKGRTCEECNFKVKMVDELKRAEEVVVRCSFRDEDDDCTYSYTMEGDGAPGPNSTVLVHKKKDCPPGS
Chain of recombinant human integrin α6β1 (P23229 24-1050, chain 1 of 2): as the sequence (P23229 24-1050, chain 1 of 2) above
Chain of recombinant human integrin α6β1 (P05556 21-728, chain 2 of 2): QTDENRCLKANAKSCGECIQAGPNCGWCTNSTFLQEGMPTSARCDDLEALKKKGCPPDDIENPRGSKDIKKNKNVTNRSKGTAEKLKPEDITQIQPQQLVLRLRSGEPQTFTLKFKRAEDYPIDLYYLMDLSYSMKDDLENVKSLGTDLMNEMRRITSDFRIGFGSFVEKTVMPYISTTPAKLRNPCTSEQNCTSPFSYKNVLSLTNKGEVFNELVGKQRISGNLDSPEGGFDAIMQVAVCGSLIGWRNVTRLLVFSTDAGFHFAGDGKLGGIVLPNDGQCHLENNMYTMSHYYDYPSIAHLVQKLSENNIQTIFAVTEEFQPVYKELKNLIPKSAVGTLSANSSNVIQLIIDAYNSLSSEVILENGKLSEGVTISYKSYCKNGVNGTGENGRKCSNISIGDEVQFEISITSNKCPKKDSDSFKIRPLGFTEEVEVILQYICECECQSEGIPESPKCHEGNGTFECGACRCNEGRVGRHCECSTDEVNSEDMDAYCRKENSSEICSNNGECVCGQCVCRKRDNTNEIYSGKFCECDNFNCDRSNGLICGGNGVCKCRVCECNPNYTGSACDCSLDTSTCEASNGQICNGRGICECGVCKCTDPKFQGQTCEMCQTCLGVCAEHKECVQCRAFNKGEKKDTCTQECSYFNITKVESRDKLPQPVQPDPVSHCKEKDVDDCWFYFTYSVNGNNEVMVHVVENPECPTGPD

B1: IDA (nc28) (ssDNA)
DNA: GCCTGTTGTGAGCCTCCTAACCGTGCGTATTCGTACTGGAACTGATATCGATGTCCCCATGCTTATTCTTGTCTCCC
binds: all assays above

Reference: paper PMC5014452
